In this experiment the target is human CCR8 (human) (UniProt P51685). Put plainly: cell-based or functional assay.

Bounds are passed on as bounds.

Consider 16 molecules from patent publication US20220064312A1.

Chain of human CCR8 (human) (P51685 whole entry): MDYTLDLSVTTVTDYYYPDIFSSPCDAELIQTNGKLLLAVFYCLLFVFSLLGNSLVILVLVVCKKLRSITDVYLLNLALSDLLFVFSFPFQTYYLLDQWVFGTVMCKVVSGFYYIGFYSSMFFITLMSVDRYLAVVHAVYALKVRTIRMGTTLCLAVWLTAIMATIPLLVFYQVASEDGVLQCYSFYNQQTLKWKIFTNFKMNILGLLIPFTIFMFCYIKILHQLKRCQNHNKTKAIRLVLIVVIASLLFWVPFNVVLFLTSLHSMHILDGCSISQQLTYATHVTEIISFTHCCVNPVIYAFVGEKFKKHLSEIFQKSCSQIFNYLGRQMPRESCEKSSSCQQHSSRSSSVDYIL

B1: h10A11 IGKV4-1/IGHV3-73 V63L (antibody, name in Kabat numbering, V domains shown)
VH: EVQLVESGGGLVQPGGSLKLSCAASGFAFNTYALYWVRQASGKGLEWVGRIRSKSNNYATYYADSLKDRFTISRDDSKNTAYLQMNSLKTEDTAVYYCTRARFYYSDYGYAMDYWGQGTLVTVSS
VL: DIVMTQSPDSLAVSLGERATINCRSSKSLLHSNGNTYLYWYQQKPGQPPKLLIYRMSNLASGVPDRFSGSGSGTDFTLTISSLQAEDVAVYYCMQHLEYPLTFGQGTKLEIKR
Turning to B1, the IC50 ratio (WT IC50/mutant IC50) is 0.56.

B2: h10A11 IGKV4-1/IGHV3-73 M100fL (antibody, name in Kabat numbering, V domains shown)
VH: EVQLVESGGGLVQPGGSLKLSCAASGFAFNTYALYWVRQASGKGLEWVGRIRSKSNNYATYYADSVKDRFTISRDDSKNTAYLQMNSLKTEDTAVYYCTRARFYYSDYGYALDYWGQGTLVTVSS
VL: DIVMTQSPDSLAVSLGERATINCRSSKSLLHSNGNTYLYWYQQKPGQPPKLLIYRMSNLASGVPDRFSGSGSGTDFTLTISSLQAEDVAVYYCMQHLEYPLTFGQGTKLEIKR
On to B2, for which the IC50 ratio (WT IC50/mutant IC50) came to 0.72.

B3: h10A11 IGKV4-1/IGHV3-73 G100cA (antibody, name in Kabat numbering, V domains shown)
VH: EVQLVESGGGLVQPGGSLKLSCAASGFAFNTYALYWVRQASGKGLEWVGRIRSKSNNYATYYADSVKDRFTISRDDSKNTAYLQMNSLKTEDTAVYYCTRARFYYSDYAYAMDYWGQGTLVTVSS
VL: DIVMTQSPDSLAVSLGERATINCRSSKSLLHSNGNTYLYWYQQKPGQPPKLLIYRMSNLASGVPDRFSGSGSGTDFTLTISSLQAEDVAVYYCMQHLEYPLTFGQGTKLEIKR
For B3, the IC50 ratio (WT IC50/mutant IC50) amounted to 0.07.

B4: h10A11 IGKV4-1/IGHV3-73 Y100dF (antibody, name in Kabat numbering, V domains shown)
VH: EVQLVESGGGLVQPGGSLKLSCAASGFAFNTYALYWVRQASGKGLEWVGRIRSKSNNYATYYADSVKDRFTISRDDSKNTAYLQMNSLKTEDTAVYYCTRARFYYSDYGFAMDYWGQGTLVTVSS
VL: DIVMTQSPDSLAVSLGERATINCRSSKSLLHSNGNTYLYWYQQKPGQPPKLLIYRMSNLASGVPDRFSGSGSGTDFTLTISSLQAEDVAVYYCMQHLEYPLTFGQGTKLEIKR
For the molecule B4, the IC50 ratio (WT IC50/mutant IC50) worked out at 0.55.

B5: h10A11 IGKV4-1/IGHV3-73 Y98F (antibody, name in Kabat numbering, V domains shown)
VH: EVQLVESGGGLVQPGGSLKLSCAASGFAFNTYALYWVRQASGKGLEWVGRIRSKSNNYATYYADSVKDRFTISRDDSKNTAYLQMNSLKTEDTAVYYCTRARFFYSDYGYAMDYWGQGTLVTVSS
VL: DIVMTQSPDSLAVSLGERATINCRSSKSLLHSNGNTYLYWYQQKPGQPPKLLIYRMSNLASGVPDRFSGSGSGTDFTLTISSLQAEDVAVYYCMQHLEYPLTFGQGTKLEIKR
As for B5, the IC50 ratio (WT IC50/mutant IC50) amounted to 0.07.

B6: h10A11 IGKV4-1/IGHV3-73 Y100bF (antibody, name in Kabat numbering, V domains shown)
VH: EVQLVESGGGLVQPGGSLKLSCAASGFAFNTYALYWVRQASGKGLEWVGRIRSKSNNYATYYADSVKDRFTISRDDSKNTAYLQMNSLKTEDTAVYYCTRARFYYSDFGYAMDYWGQGTLVTVSS
VL: DIVMTQSPDSLAVSLGERATINCRSSKSLLHSNGNTYLYWYQQKPGQPPKLLIYRMSNLASGVPDRFSGSGSGTDFTLTISSLQAEDVAVYYCMQHLEYPLTFGQGTKLEIKR
With B6, the IC50 ratio (WT IC50/mutant IC50) turned out to be 0.75.

B7: h10A11 IGKV4-1/IGHV3-73 Y102F (antibody, name in Kabat numbering, V domains shown)
VH: EVQLVESGGGLVQPGGSLKLSCAASGFAFNTYALYWVRQASGKGLEWVGRIRSKSNNYATYYADSVKDRFTISRDDSKNTAYLQMNSLKTEDTAVYYCTRARFYYSDYGYAMDFWGQGTLVTVSS
VL: DIVMTQSPDSLAVSLGERATINCRSSKSLLHSNGNTYLYWYQQKPGQPPKLLIYRMSNLASGVPDRFSGSGSGTDFTLTISSLQAEDVAVYYCMQHLEYPLTFGQGTKLEIKR
B7: the IC50 ratio (WT IC50/mutant IC50) came out at 0.99.

B8: h10A11 IGKV4-1/IGHV3-73 D101E (antibody, name in Kabat numbering, V domains shown)
VH: EVQLVESGGGLVQPGGSLKLSCAASGFAFNTYALYWVRQASGKGLEWVGRIRSKSNNYATYYADSVKDRFTISRDDSKNTAYLQMNSLKTEDTAVYYCTRARFYYSDYGYAMEYWGQGTLVTVSS
VL: DIVMTQSPDSLAVSLGERATINCRSSKSLLHSNGNTYLYWYQQKPGQPPKLLIYRMSNLASGVPDRFSGSGSGTDFTLTISSLQAEDVAVYYCMQHLEYPLTFGQGTKLEIKR
Take B8: the IC50 (n.d.: 10 nM or more) was above 10 nM.

B9: h10A11 IGKV4-1/IGHV3-73 Y99F (antibody, name in Kabat numbering, V domains shown)
VH: EVQLVESGGGLVQPGGSLKLSCAASGFAFNTYALYWVRQASGKGLEWVGRIRSKSNNYATYYADSVKDRFTISRDDSKNTAYLQMNSLKTEDTAVYYCTRARFYFSDYGYAMDYWGQGTLVTVSS
VL: DIVMTQSPDSLAVSLGERATINCRSSKSLLHSNGNTYLYWYQQKPGQPPKLLIYRMSNLASGVPDRFSGSGSGTDFTLTISSLQAEDVAVYYCMQHLEYPLTFGQGTKLEIKR
In the case of B9, the IC50 ratio (WT IC50/mutant IC50) is 0.8.

B10: h10A11 IGKV4-1/IGHV3-73 K64R (antibody, name in Kabat numbering, V domains shown)
VH: EVQLVESGGGLVQPGGSLKLSCAASGFAFNTYALYWVRQASGKGLEWVGRIRSKSNNYATYYADSVRDRFTISRDDSKNTAYLQMNSLKTEDTAVYYCTRARFYYSDYGYAMDYWGQGTLVTVSS
VL: DIVMTQSPDSLAVSLGERATINCRSSKSLLHSNGNTYLYWYQQKPGQPPKLLIYRMSNLASGVPDRFSGSGSGTDFTLTISSLQAEDVAVYYCMQHLEYPLTFGQGTKLEIKR
Consider B10, for which the IC50 ratio (WT IC50/mutant IC50) came to 0.54.

B11: h10A11 IGKV4-1/IGHV3-73 S100T (antibody, name in Kabat numbering, V domains shown)
VH: EVQLVESGGGLVQPGGSLKLSCAASGFAFNTYALYWVRQASGKGLEWVGRIRSKSNNYATYYADSVKDRFTISRDDSKNTAYLQMNSLKTEDTAVYYCTRARFYYTDYGYAMDYWGQGTLVTVSS
VL: DIVMTQSPDSLAVSLGERATINCRSSKSLLHSNGNTYLYWYQQKPGQPPKLLIYRMSNLASGVPDRFSGSGSGTDFTLTISSLQAEDVAVYYCMQHLEYPLTFGQGTKLEIKR
For the molecule B11, the IC50 ratio (WT IC50/mutant IC50) was determined as 0.64.

B12: h10A11 IGKV4-1/IGHV3-73 D100aE (antibody, name in Kabat numbering, V domains shown)
VH: EVQLVESGGGLVQPGGSLKLSCAASGFAFNTYALYWVRQASGKGLEWVGRIRSKSNNYATYYADSVKDRFTISRDDSKNTAYLQMNSLKTEDTAVYYCTRARFYYSEYGYAMDYWGQGTLVTVSS
VL: DIVMTQSPDSLAVSLGERATINCRSSKSLLHSNGNTYLYWYQQKPGQPPKLLIYRMSNLASGVPDRFSGSGSGTDFTLTISSLQAEDVAVYYCMQHLEYPLTFGQGTKLEIKR
With B12, the IC50 ratio (WT IC50/mutant IC50) was determined as 0.3.

B13: h10A11 IGKV4-1/IGHV3-73 D65E (antibody, name in Kabat numbering, V domains shown)
VH: EVQLVESGGGLVQPGGSLKLSCAASGFAFNTYALYWVRQASGKGLEWVGRIRSKSNNYATYYADSVKERFTISRDDSKNTAYLQMNSLKTEDTAVYYCTRARFYYSDYGYAMDYWGQGTLVTVSS
VL: DIVMTQSPDSLAVSLGERATINCRSSKSLLHSNGNTYLYWYQQKPGQPPKLLIYRMSNLASGVPDRFSGSGSGTDFTLTISSLQAEDVAVYYCMQHLEYPLTFGQGTKLEIKR
As for B13, the IC50 ratio (WT IC50/mutant IC50) was found to be 1.3.

B14: h10A11 IGKV4-1/IGHV3-73 A100eV (antibody, name in Kabat numbering, V domains shown)
VH: EVQLVESGGGLVQPGGSLKLSCAASGFAFNTYALYWVRQASGKGLEWVGRIRSKSNNYATYYADSVKDRFTISRDDSKNTAYLQMNSLKTEDTAVYYCTRARFYYSDYGYVMDYWGQGTLVTVSS
VL: DIVMTQSPDSLAVSLGERATINCRSSKSLLHSNGNTYLYWYQQKPGQPPKLLIYRMSNLASGVPDRFSGSGSGTDFTLTISSLQAEDVAVYYCMQHLEYPLTFGQGTKLEIKR
As for B14, the IC50 ratio (WT IC50/mutant IC50) was found to be 0.49.

B15: h10A11 IGKV4-1/IGHV3-73 F97L (antibody, name in Kabat numbering, V domains shown)
VH: EVQLVESGGGLVQPGGSLKLSCAASGFAFNTYALYWVRQASGKGLEWVGRIRSKSNNYATYYADSVKDRFTISRDDSKNTAYLQMNSLKTEDTAVYYCTRARLYYSDYGYAMDYWGQGTLVTVSS
VL: DIVMTQSPDSLAVSLGERATINCRSSKSLLHSNGNTYLYWYQQKPGQPPKLLIYRMSNLASGVPDRFSGSGSGTDFTLTISSLQAEDVAVYYCMQHLEYPLTFGQGTKLEIKR
B15: the IC50 (n.d.: 10 nM or more) was above 10 nM.

B16: h10A11 IGKV4-1/IGHV3-73 R96K (antibody, name in Kabat numbering, V domains shown)
VH: EVQLVESGGGLVQPGGSLKLSCAASGFAFNTYALYWVRQASGKGLEWVGRIRSKSNNYATYYADSVKDRFTISRDDSKNTAYLQMNSLKTEDTAVYYCTRAKFYYSDYGYAMDYWGQGTLVTVSS
VL: DIVMTQSPDSLAVSLGERATINCRSSKSLLHSNGNTYLYWYQQKPGQPPKLLIYRMSNLASGVPDRFSGSGSGTDFTLTISSLQAEDVAVYYCMQHLEYPLTFGQGTKLEIKR
For the molecule B16, the IC50 (n.d.: 10 nM or more) was above 10 nM.
